The subject of this series is MS2 coat protein. Put plainly: apparent KD of MS2 coat protein; designed switch direction (-1 OFF switch, 1 ON switch): -1; higher = weaker reporter binding. Summed up: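 The reported apparent KD is a per-design median over clusters, from curve fits of normalised cluster fluorescence. Protein titrations used SNAP-549-labelled MS2 coat protein, doubled from 0.7 or 1.5 nM to 3 µM, in Tris-HCl pH 7.5 buffer with KCl, MgCl2, BSA, DTT, tRNA and Tween-20, with no input, 200 uM small-molecule ligand, or an oligonucleotide input. The RNA switches were transcribed on Illumina chips by stalled E. coli RNA polymerase.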

Setting [1] is: input ligand: microRNA oligo, concentration not stated.

Consider “ACACAGCGAGGAUAUACAUGAGGAUCACCCAUGUGGCGGCCGUUACGGUAGCGCUAGUGUAGAAGGCGCAUUGG [EX3 #36] (Eterna round: R97, puzzle: Exclusion 3)”, for which the “apparent KD of MS2 coat protein” value runs as follows: (input ligand: FMN 200 uM) 65.8 nM; (input ligand: none) 94.2 nM.
Taken in the same sequence, the figures for “ACAGACCGUGUUAGGAUAUUAUUUUACUCAAGUAGUGAGAAGGGACAUGAGGAUCACCCAUGUGUGGGAGUUGA [Eternabot (L2) Solution 42] (Eterna round: R97, puzzle: Brourd's mod of Exclusion 4)” were 83 nM and 87 nM.
Regarding “ACAGUACUGCAAGGAUAUCGUUCUAGUUUAUUACGAGAAGGUGCUUUAGUUAUUUCUUUGGGUUGACAUGAGGAUCACCCAUGU [JR_ExcNG1_Sub056] (Eterna round: R96, puzzle: Exclusion NG 1)”, the “apparent KD of MS2 coat protein” value reads like this: (input ligand: FMN 200 uM) 156 nM; under setting [1], 143 nM; (input ligand: none) 144 nM.
The like results for “ACAGUAUGAUCCGCUCAACAUGAGGAUCACCCAUGUGAUGACUAGGAUAUUAGUAGCCCGCGCAUUAAGAAGGAGUUACGAUUG [Eternabot solution 33] (Eterna round: R96, puzzle: Exclusion NG 3)” were, in that order, 20 nM, 13.9 nM and 23.6 nM.
Taken in the same sequence, the figures for “ACAUGACUGCUAGGAUAUAGAUGACAUGAGGAUCACCCAUGUUAUCCCAUGUUGACGGAAACCGACUAGAAGGAGCAACAUAUG [Ex NG2 #8] (Eterna round: R96, puzzle: Exclusion NG 2)” were 64.7 nM, 30.6 nM and 46.5 nM.
The like results for “ACAUGAGGAUCACCCAUGUAAACAUGAUGGCUGAUGUAGAGCUAGGAUAUGAGUGACUUUCUAUCUCAGAAGGAGCUUGACUGG [Deportation 44 - Jieux - Exclusion NG 3] (Eterna round: R96, puzzle: Exclusion NG 3)” were, in that order, 30.1 nM, 26.9 nM and 45.2 nM.
Regarding “ACAUGAGGAUCACCCAUGUAAUCAUGAUGGCUGAUGUAGAGUCAGGAUAUGUGUGGCUUUCUAUCACAGAAGGGACAAGACUGG [Deportation 36 - Jieux - Exclusion NG 3] (Eterna round: R96, puzzle: Exclusion NG 3)”, the “apparent KD of MS2 coat protein” value is, setting by setting: (input ligand: FMN 200 uM) 42.9 nM; under setting [1], 26.2 nM; (input ligand: none) 34.9 nM.
The like results for “ACAUGAGGAUCACCCAUGUACAGGGUUUAGUUUCAUCGUUUGAAGGAUAUACUCAGUUAGUUGUUGUAGAAGGUCACAUUUUGG [JR_ExcNG3_Sub004] (Eterna round: R96, puzzle: Exclusion NG 3)” were, in that order, 138 nM, 108 nM and 126 nM.
Taken in the same sequence, the figures for “ACAUGAGGAUCACCCAUGUCAGGCGGGUCCACUCCGGCUGUUGAGGAUAUAGUUCGGUAUCCGCGCUAGAAGGUGAGGGCCGGC [Aenatbe mod 22] (Eterna round: R96, puzzle: Exclusion NG 3)” were 16 nM, 15.3 nM and 18.2 nM.
Taken in the same sequence, the figures for “ACAUGAGGAUCACCCAUGUCAGGCUGGUCCGCUCCGGCUGUUGAGGAUAUAGCACGGUAUCCGCGCUAGAAGGUGAGGGCCGGC [Aenatbe mod 30] (Eterna round: R96, puzzle: Exclusion NG 3)” were 21.6 nM, 18 nM and 22.5 nM.
For the sequence “ACAUGAGGAUCACCCAUGUCCGGCUGGUCCGUCUCGGCUGUCGAGGAUAUAGCUCGGUGUCCGCGCUAGAAGGCGGGAGCUGGC [Aenatbe mod 67] (Eterna round: R96, puzzle: Exclusion NG 3)”, the “apparent KD of MS2 coat protein” value by setting is: (input ligand: FMN 200 uM) 91.5 nM; under setting [1], 49.8 nM; (input ligand: none) 85.1 nM.
For “ACAUGAGGAUCACCCAUGUCCGGCUGGUCUGUUCCGGUUGUCGAGGAUAUAGUUCGGUGUUCGCGCUAGAAGGCGGGAGCUGGA [Aenatbe mod 53] (Eterna round: R96, puzzle: Exclusion NG 3)”, the “apparent KD of MS2 coat protein” value (input ligand: FMN 200 uM) came out at 177 nM, the “apparent KD of MS2 coat protein” value under setting [1] came to 130 nM and the “apparent KD of MS2 coat protein” value (input ligand: none) was 157 nM.
On to “ACAUGAGGAUCACCCAUGUCCGGUUGGUCUGUUCCGGCUGUCGAGGAUAUAGUCCGGUGUUCGCGCUAGAAGGCGAGGGCUGGA [Aenatbe mod 47] (Eterna round: R96, puzzle: Exclusion NG 3)”, for which the “apparent KD of MS2 coat protein” value (input ligand: FMN 200 uM) turned out to be 1180 nM, the “apparent KD of MS2 coat protein” value under setting [1] is 227 nM and the “apparent KD of MS2 coat protein” value (input ligand: none) was found to be 397 nM.
“ACAUGAGGAUCACCCAUGUCCGGUUGGUUUUCUCCGGCUGUUGAGGAUAUAGUCCGGUAUCCGCGCUAGAAGGUGAGGGUUGGC [Aenatbe mod 12] (Eterna round: R96, puzzle: Exclusion NG 3)”: the “apparent KD of MS2 coat protein” value was found to be 212 nM (input ligand: FMN 200 uM), 125 nM under setting [1] and 165 nM (input ligand: none).
Turning to “ACAUGAGGAUCACCCAUGUGAAAAGAAUGGCUGACACAGAGAUAGGAUAUAUGUGCAUAUCAAACAUAGAAGGGUCAUGACUGG [Deportation 83 - Jieux - Exclusion NG 3] (Eterna round: R96, puzzle: Exclusion NG 3)”, under setting [1], the “apparent KD of MS2 coat protein” value was 23 nM.
Consider “ACAUGAGGAUCACCCAUGUGAAACCAAUGGCUGACUUUGAGACAGGAUAUUCGUGCAUAUCAAACGAAGAAGGGUCAUUACUGG [Deportation 95 - Jieux - Exclusion NG 3] (Eterna round: R96, puzzle: Exclusion NG 3)”, for which the “apparent KD of MS2 coat protein” value turned out to be 56.8 nM (input ligand: FMN 200 uM), 41.1 nM under setting [1] and 46.8 nM (input ligand: none).
Consider “ACAUGAGGAUCACCCAUGUGGACGUAAUGGCUCAUGUAGAGUGAGGAUAUGUGAGACGAACGAGAACAGAAGGCACAAGACAGG [Deportation 7 - Jieux - Exclusion NG 3] (Eterna round: R96, puzzle: Exclusion NG 3)”, for which the “apparent KD of MS2 coat protein” value by setting is: (input ligand: FMN 200 uM) 26.3 nM; under setting [1], 14.5 nM; (input ligand: none) 22.1 nM.
The like results for “ACAUGGGAGCGAGGAUAUAGCCCAUGUGAAGAACUAGAAGGCGCAGACAUGAGGAUCACCCAUGUGUUCAUGAGGAGGUGGACA (Eterna round: R96, puzzle: Exclusion NG 1)” were, in that order, 72.7 nM, 42.4 nM and 69.4 nM.
With “ACAUGUAAUGCAGGAUAUCGGACACAUGAGGAUCACCCAUGUGACCAGAGGAAUUGCUAAGAGUCUGAGAAGGGUAUGUACAUG [Ex NG2 #52] (Eterna round: R96, puzzle: Exclusion NG 2)”, the “apparent KD of MS2 coat protein” value reads like this: (input ligand: FMN 200 uM) 23.2 nM; under setting [1], 12.9 nM; (input ligand: none) 19 nM.
Consider “ACAUGUAAUGCAGGAUAUUUUACACAUGAGGAUCACCCAUGUGACCAGAGGAAUUGCUAUGAGUAAAAGAAGGGUAUGUACAUG [Ex NG2 #57] (Eterna round: R96, puzzle: Exclusion NG 2)”, for which the “apparent KD of MS2 coat protein” value under setting [1] came to 53.9 nM.
On the same count and under the same terms, next, “ACAUGUAAUGUAGGAUAUUUUACACAUGAGGAUCACCCAUGUGACCAGAGGCUUUGCUAUGAGUAAAAGAAGGGUAUGUACAUG [Ex NG2 #59] (Eterna round: R96, puzzle: Exclusion NG 2)”: 51.5 nM.

Source of the values: the supplement of paper PMC9170038.
